Source: CN113151186A (UNIV SHANGHAI JIAOTONG, dated 2021)

Target: T1, 全长CD271蛋白抗原 (human CD271, full-length protein antigen) (human, UniProt P08138 29-250, limits assumed)
T1 construct: Printed only as full-length CD271 protein; also called CD271全长蛋白; 全长抗原CD271
T1 sequence (looked up): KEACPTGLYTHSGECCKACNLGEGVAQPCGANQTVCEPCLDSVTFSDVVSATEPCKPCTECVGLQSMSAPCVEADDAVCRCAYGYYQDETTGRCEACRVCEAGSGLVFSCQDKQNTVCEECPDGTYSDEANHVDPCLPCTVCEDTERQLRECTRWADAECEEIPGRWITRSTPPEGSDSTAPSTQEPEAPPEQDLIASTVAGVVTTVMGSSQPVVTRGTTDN
Assay: BLI (ForteBio), full-length CD271 immobilised on ProA sensor, antibody at 30-130 nM

B1: 抗人CD271单克隆抗体 CD271T-2 (小鼠腹水纯化抗体, 杂交瘤细胞株CD271T-2, CGMCC 21494) (antibody, V domains shown)
VH: QVTLKESGPGILKPSQTLSLTCSFSGFSLSTSGMGVGWIRQPSGKGLEWLAHIWWDDDKYYNPSLKSQLTISKDTSRNQVFLKITSVDTAGTATYYCARRDYGNYYAMDYWGQGTSVTVS
VL: DIVLTQSPASLAVSLGQRATISCKASQSVDYDGDSYMNWYQQKPGQPPKLLIYAASNLESGIPARFSGSGSGTDFTLNIHPVEEEDAATYYCQQSNEDPFTFGSGTKLEIK
notes: It was purified from mouse ascites on MabSelect SuRe; also called CD271T-2腹水纯化抗体; 抗人CD271腹水抗体
Kd: 3.37 nM
koff: 0.000225 s⁻¹
kon: 66900 M⁻¹ s⁻¹
